Series [1] has as its system FLAG-L4 (ribosomal protein L4) (Escherichia coli (expressed in BL21(DE3) rne131)). Description: EMSA. The conditions noted are these: EMSA: 30 C, 20 min, native 5% PAGE, ~2 ng RNA, 0.7-5.5 uM L4, buffer not given (cited method); footprinting: room temperature (25 C), RNase V1 in 1x RNA …. (A gel shift assay detects complexes by their altered migration in electrophoresis.)

The target in series [2] is FLAG-L4 (ribosomal protein L4) (Escherichia coli (expressed in BL21(DE3) rne131)) (UniProt P60723). In words: competition. Particulars: EMSA: 30 C, 20 min, native 5% PAGE, ~2 ng RNA, 0.7-5.5 uM L4, buffer not given (cited method); footprinting: room temperature (25 C), RNase V1 in 1x RNA ….

Usually Kd stands for the constant that tells how readily two partners part at equilibrium. Low values mean a tighter complex, high ones a looser complex. The substance “tnaC-tnaA transcribed spacer RNA (gel shift)” gave a Kd in series [1] of 2100 nM.
As to “GGGGCUUAACGUCGCGUAAAUUGUUUAACACUUUGCGUAACGUACACUGGGAUCGCUGAAUUAGAGAUCGGCGUCCUUUCAUUCUAUAUACUUUGGAGUUUUAAAAUGUCUCUAAGUACUGAAGCAACAGCUAAAAUCGUUUCUGAG [rpsO-UTR RNA]”, the binding entry in series [2] is given as “no binding”.
Still for that read-out and setting: for “GGGGGCUUGUCGUAGUUGACAGCAGGUUCAAUCUGAACCUCAGUUAGCCGAAUUUGGCUACCUAACAAUGCUCCCAAUCGGGGAGCUACGUAAGAACGGUUACACUCUCCCAUCAAUCGUAAUGGGUCUGAGGAGUAAUCAUUUUCGUUUAUAAAAUAAUUGGAGCUCUGGUCUC [S10-UTR RNA]” the value was “binds”.

(Values after publication PMC7186457.)
